For two substances, RFP fluorescence relative to a strain with no guide RNA (dCas9-based repression of a chromosomal RFP reporter in E. coli) results are on record in patent US20200087354A1.

This assay addresses Streptococcus pyogenes (Spy) dCas9 (Streptococcus pyogenes) (UniProt Q99ZW2). Nature of the assay: cell-based or functional assay.

The substance AcrIIA4 gave an RFP fluorescence relative to a strain with no guide RNA (dCas9-based repression of a chromosomal RFP reporter in E. coli) of 85%.

Consider AcrIIA2 (LMOG_03147), for which the RFP fluorescence relative to a strain with no guide RNA (dCas9-based repression of a chromosomal RFP reporter in E. coli) was 25%.
